Test results: patent publication US20090062150A1 (published 2009)

Molecular target: T1, 7-mer (AGAIAGG) derived from Toxoplasma gondii micronemal proteins (MIC2) (Toxoplasma gondii)
T1 construct: also called MIC2 peptide; MC2
Test: crystal soak, X-ray structure

B1: N-terminally truncated GlpG transmembrane core domain (residues 87-276), E. coli rhomboid protease (enzyme)
chain: AALRERAGPVTWVMMIACVVVFIAMQILGDQEVMLWLAWPFDPTLKFEFWRYFTHALMHFSLMHILFNLLWWWYLGGAVEKRLGSGKLIVITLISALLSGYVQQKFSGPWFGGLSGVVYALMGYVWLRGERDPQSGIYLQRGLIIFALIWIVAGWFDLFGMSMANGAHIAGLAVGLAMAFVDSLNARKRK
notes: range 87-276; also called GlpG core; truncated GlpG core domain
binding result: binds
